For one substance, IC50 of trypsin inhibition (fluorogenic substrate, enzyme activity) and IC50 of inhibition of trypsin-induced IL-6 production in BEAS2B cells results are on record in patent US20220127334A1.

For assay [1], the target named is Human pancreatic trypsin (Athens Research & Technology, Inc) (human) (UniProt P07477). In words: cell-based or functional assay.
The target of assay [2] is trypsin (Examples 7 and 8, source not stated). In words: cell-based or functional assay.

In turn, “human UTI (human urine UTI) (from UniProt P02760 206-352)” had an IC50 of trypsin inhibition (fluorogenic substrate, enzyme activity) in assay [1] of 3 nM. The substance also returned an IC50 of inhibition of trypsin-induced IL-6 production in BEAS2B cells in assay [2] of 0.4 µg/mL.
